Experiment [1] has as its target taxol-polymerized microtubules from bovine brain tubulin (bovine (purified from bovine brain)) (UniProt Q6B856). The experiment can be described thus: co-sedimentation; MT pelleting assay with 2 mM AMP-PNP: Kif15 19-375 (1–12 µM) mixed with taxol-polymerized MTs (5 µM), 50 mM PIPES pH 6.9, 20 mM NaCl, 2 mM MgCl2, 1 mM DTT, room temperature 10 min, 100 000g at 25°C for 20 min, SDS–PAGE of supernatants and pellets.

Experiment [2] has the same target.
The target is the same in experiment [3]. The source holds these as a separate data set.
The target is the same in experiment [4]. The experiment can be described thus: co-sedimentation; MT pelleting assay with 4 mU apyrase ('nucleotide-free' state): Kif15 19-375 (1–12 µM) mixed with taxol-polymerized MTs (5 µM), 50 mM PIPES pH 6.9, 20 mM NaCl, 2 mM MgCl2, 1 mM DTT, room temperature 10 min, 100 000g at 25°C for 20 min, SDS–PAGE of supernatants and pellets.

B1: Homo sapiens Kif15 motor domain and neck-linker region (Kif15 19-375) (domain or fragment)
chain: QPSNEGDAIKVFVRIRPPAERSGSADGEQNLCLSVLSSTSLRLHSNPEPKTFTFDHVADVDTTQESVFATVAKSIVESCMSGYNGTIFAYGQTGSGKTFTMMGPSESDNFSHNLRGVIPRSFEYLFSLIDREKEKAGAGKSFLCKCSFIEIYNEQIYDLLDSASAGLYLREHIKKGVFVVGAVEQVVTSAAEAYQVLSGGWRNRRVASTSMNRESSRSHAVFTITIESMEKSNEIVNIRTSLLNLVDLAGSERQKDTHAEGMRLKEAGNINRSLSCLGQVITALVDVGNGKQRHVCYRDSKLTFLLRDSLGGNAKTAIIANVHPGSRCFGETLSTLNFAQRAKLIKNKAVVNEDTQG
In experiment [1], B1 registered a dissociation constant (Kd) of 500 nM and a stoichiometry N of 1.1. The molecule further had a K 0.5,MT of the MT-stimulated ATPase activity (MTs 0 to 10 µM, 1 mM ATP, no KCl, 25°C) in experiment [2] of 1.1 µM. The MT activation of Mant-ADP release, stopped flow, 25°C, various MT concentrations with chasing Mg2+-ATP (MTs here from pig brain tubulin; preliminary data) in experiment [3] is 1000 fold. In experiment [4], this molecule registered a Kd of 400 nM and a stoichiometry N of 1.3.
